Assay results published in article PMC9253567, “The Role of ZAP and TRIM25 RNA Binding in Restricting Viral Translation” (Frontiers in Cellular and Infection Microbiology, 2022).

How the values were obtained:
[1] = biological target: T1, myc-tagged TRIM25 WT (tripartite motif-containing protein 25) (UniProt Q14258 1-630); test: co-IP; myc IP (anti-myc beads) of myc-TRIM25 WT from lysates of ZAP KO 293T cells co-transfected with FLAG-ZAPS or FLAG-ZAPL WT or mutants; FLAG-ZAP detected by immunoblot; FLAG IP buffer (100 mM Tris-HCl 8.0, 150 mM NaCl, 5 mM EDTA, 1 mM DTT, 5% glycerol, 0.1% NP-40), 4°C, 45 min; FLAG IP band divided by myc IP band (ImageJ); conditions: partners not purified
T1 construct: tripartite motif-containing protein 25 (TRIM25), ubiquitin E3 ligase; full-length TRIM25 provided by J. U. Jung (Gack et al., 2007); source: ZAP KO 293T or TRIM25 KO 293T cells, transfected (pcDNA3.1-myc), in lysate; not shown: myc, N-terminal, kept
T1 sequence (Q14258 whole entry): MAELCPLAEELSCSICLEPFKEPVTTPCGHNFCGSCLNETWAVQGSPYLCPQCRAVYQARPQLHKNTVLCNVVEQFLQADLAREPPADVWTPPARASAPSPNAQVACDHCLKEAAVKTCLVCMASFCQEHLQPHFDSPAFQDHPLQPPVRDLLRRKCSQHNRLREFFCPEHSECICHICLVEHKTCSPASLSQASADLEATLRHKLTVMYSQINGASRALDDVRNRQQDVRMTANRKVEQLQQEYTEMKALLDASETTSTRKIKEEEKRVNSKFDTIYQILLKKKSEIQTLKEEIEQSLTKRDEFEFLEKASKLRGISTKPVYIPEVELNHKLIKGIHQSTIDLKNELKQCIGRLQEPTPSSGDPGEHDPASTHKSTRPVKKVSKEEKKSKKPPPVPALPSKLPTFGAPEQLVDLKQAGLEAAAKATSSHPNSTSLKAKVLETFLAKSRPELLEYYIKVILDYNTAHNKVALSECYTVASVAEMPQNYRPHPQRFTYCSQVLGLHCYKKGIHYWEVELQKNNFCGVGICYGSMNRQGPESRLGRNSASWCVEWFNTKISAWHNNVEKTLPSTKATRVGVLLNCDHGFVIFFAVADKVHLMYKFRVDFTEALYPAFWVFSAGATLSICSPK

[2] = biological target: T1, myc-tagged TRIM25 WT (tripartite …); test: cell-based or functional assay

Binder | ZAP-TRIM25 interaction (co-IP, FLAG-ZAP band over myc-TRIM25 band, ImageJ) [1] | JEV translation inhibition: fold inhibition of Renilla luciferase from a replication-defective JEV replicon, relative to empty plasmid, ZAP KO 293T cells, 4 h after replicon transfection [2]
FLAG-tagged ZAPS H191R (ZnF 4 mutant) (natural protein, human, UniProt Q7Z2W4-2 1-699, looked up, zinc finger antiviral protein (ZAP), short isoform ZAPS, cloned from pTRIP-TagRFP-hZAPS; source: ZAP KO 293T cells, transfected (pcDNA3.1-3XFLAG), in lysate; not shown: 3XFLAG, N-terminal, kept) MADPEVCCFITKILCAHGGRMALDALLQEIALSEPQLCEVLQVAGPDRFVVLETGGEAGITRSVVATTRARVCRRKYCQRPCDNLHLCKLNLLGRCNYSQSERNLCKYSHEVLSEENFKVLKNHELSGLNKEELAVLLLQSDPFFMPEICKSYKGEGRQQICNQQPPCSRLHICDHFTRGNCRFPNCLRSRNLMDRKVLAIMREHGLNPDVVQNIQDICNSKHMQKNPPGPRAPSSHRRNMAYRARSKSRDRFFQGSQEFLASASASAERSCTPSPDQISHRASLEDAPVDDLTRKFTYLGSQDRARPPSGSSKATDLGGTSQAGTSQRFLENGSQEDLLHGNPGSTYLASNSTSAPNWKSLTSWTNDQGARRKTVFSPTLPAARSSLGSLQTPEAVTTRKGTGLLSSDYRIINGKSGTQDIQPGPLFNNNADGVATDITSTRSLNYKSTSSGHREISSPRIQDAGPASRDVQATGRIADDADPRVALVNDSLSDVTSTTSSRVDDHDSEEICLDHLCKGCPLNGSCSKVHFHLPYRWQMLIGKTWTDFEHMETIEKGYCNPGIHLCSVGSYTINFRVMSCDSFPIRRLSTPSSVTKPANSVFTTKWIWYWKNESGTWIQYGEEKDKRKNSNVDSSYLESLYQSCPRGVVPFQAGSRNYELSFQGMIQTNIASKTQKDVIRRPTFVPQWYVQQMKRGPE | 1.05 | 2.18 fold inhibition relative to empty plasmid transfection
FLAG-tagged ZAPL C88R (ZnF 2 mutant) (natural protein, human, UniProt Q7Z2W4-1 1-902, looked up, zinc finger antiviral protein (ZAP), long isoform ZAPL, cloned from pTRIP-TagRFP-hZAPL; source: ZAP KO 293T cells, transfected (pcDNA3.1-3XFLAG), in lysate; not shown: 3XFLAG, N-terminal, kept) MADPEVCCFITKILCAHGGRMALDALLQEIALSEPQLCEVLQVAGPDRFVVLETGGEAGITRSVVATTRARVCRRKYCQRPCDNLHLRKLNLLGRCNYSQSERNLCKYSHEVLSEENFKVLKNHELSGLNKEELAVLLLQSDPFFMPEICKSYKGEGRQQICNQQPPCSRLHICDHFTRGNCRFPNCLRSHNLMDRKVLAIMREHGLNPDVVQNIQDICNSKHMQKNPPGPRAPSSHRRNMAYRARSKSRDRFFQGSQEFLASASASAERSCTPSPDQISHRASLEDAPVDDLTRKFTYLGSQDRARPPSGSSKATDLGGTSQAGTSQRFLENGSQEDLLHGNPGSTYLASNSTSAPNWKSLTSWTNDQGARRKTVFSPTLPAARSSLGSLQTPEAVTTRKGTGLLSSDYRIINGKSGTQDIQPGPLFNNNADGVATDITSTRSLNYKSTSSGHREISSPRIQDAGPASRDVQATGRIADDADPRVALVNDSLSDVTSTTSSRVDDHDSEEICLDHLCKGCPLNGSCSKVHFHLPYRWQMLIGKTWTDFEHMETIEKGYCNPGIHLCSVGSYTINFRVMSCDSFPIRRLSTPSSVTKPANSVFTTKWIWYWKNESGTWIQYGEEKDKRKNSNVDSSYLESLYQSCPRGVVPFQAGSRNYELSFQGMIQTNIASKTQKDVIRRPTFVPQWYVQQMKRGPDHQPAKTSSVSLTATFRPQEDFCFLSSKKYKLSEIHHLHPEYVRVSEHFKASMKNFKIEKIKKIENSELLDKFTWKKSQMKEEGKLLFYATSRAYVESICSNNFDSFLHETHENKYGKGIYFAKDAIYSHKNCPYDAKNVVMFVAQVLVGKFTEGNITYTSPPPQFDSCVDTRSNPSVFVIFQKDQVYPQYVIEYTEDKACVIS | 1.13 | 5.19 fold inhibition relative to empty plasmid transfection
FLAG-tagged ZAPL H176A/F184A/R189A (natural protein, human, UniProt Q7Z2W4-1 1-902, looked up, zinc finger antiviral protein (ZAP), long isoform ZAPL, cloned from pTRIP-TagRFP-hZAPL; also called ZAPL HFR; HFR; source: ZAP KO 293T cells, transfected (pcDNA3.1-3XFLAG), in lysate; not shown: 3XFLAG, N-terminal, kept) MADPEVCCFITKILCAHGGRMALDALLQEIALSEPQLCEVLQVAGPDRFVVLETGGEAGITRSVVATTRARVCRRKYCQRPCDNLHLCKLNLLGRCNYSQSERNLCKYSHEVLSEENFKVLKNHELSGLNKEELAVLLLQSDPFFMPEICKSYKGEGRQQICNQQPPCSRLHICDAFTRGNCRAPNCLASHNLMDRKVLAIMREHGLNPDVVQNIQDICNSKHMQKNPPGPRAPSSHRRNMAYRARSKSRDRFFQGSQEFLASASASAERSCTPSPDQISHRASLEDAPVDDLTRKFTYLGSQDRARPPSGSSKATDLGGTSQAGTSQRFLENGSQEDLLHGNPGSTYLASNSTSAPNWKSLTSWTNDQGARRKTVFSPTLPAARSSLGSLQTPEAVTTRKGTGLLSSDYRIINGKSGTQDIQPGPLFNNNADGVATDITSTRSLNYKSTSSGHREISSPRIQDAGPASRDVQATGRIADDADPRVALVNDSLSDVTSTTSSRVDDHDSEEICLDHLCKGCPLNGSCSKVHFHLPYRWQMLIGKTWTDFEHMETIEKGYCNPGIHLCSVGSYTINFRVMSCDSFPIRRLSTPSSVTKPANSVFTTKWIWYWKNESGTWIQYGEEKDKRKNSNVDSSYLESLYQSCPRGVVPFQAGSRNYELSFQGMIQTNIASKTQKDVIRRPTFVPQWYVQQMKRGPDHQPAKTSSVSLTATFRPQEDFCFLSSKKYKLSEIHHLHPEYVRVSEHFKASMKNFKIEKIKKIENSELLDKFTWKKSQMKEEGKLLFYATSRAYVESICSNNFDSFLHETHENKYGKGIYFAKDAIYSHKNCPYDAKNVVMFVAQVLVGKFTEGNITYTSPPPQFDSCVDTRSNPSVFVIFQKDQVYPQYVIEYTEDKACVIS | 0.03 | –
FLAG-tagged ZAPL E148A/K151A/R170A (natural protein, human, UniProt Q7Z2W4-1 1-902, looked up, zinc finger antiviral protein (ZAP), long isoform ZAPL, cloned from pTRIP-TagRFP-hZAPL; also called ZAPL EKR; EKR; source: ZAP KO 293T cells, transfected (pcDNA3.1-3XFLAG), in lysate; not shown: 3XFLAG, N-terminal, kept) MADPEVCCFITKILCAHGGRMALDALLQEIALSEPQLCEVLQVAGPDRFVVLETGGEAGITRSVVATTRARVCRRKYCQRPCDNLHLCKLNLLGRCNYSQSERNLCKYSHEVLSEENFKVLKNHELSGLNKEELAVLLLQSDPFFMPAICASYKGEGRQQICNQQPPCSALHICDHFTRGNCRFPNCLRSHNLMDRKVLAIMREHGLNPDVVQNIQDICNSKHMQKNPPGPRAPSSHRRNMAYRARSKSRDRFFQGSQEFLASASASAERSCTPSPDQISHRASLEDAPVDDLTRKFTYLGSQDRARPPSGSSKATDLGGTSQAGTSQRFLENGSQEDLLHGNPGSTYLASNSTSAPNWKSLTSWTNDQGARRKTVFSPTLPAARSSLGSLQTPEAVTTRKGTGLLSSDYRIINGKSGTQDIQPGPLFNNNADGVATDITSTRSLNYKSTSSGHREISSPRIQDAGPASRDVQATGRIADDADPRVALVNDSLSDVTSTTSSRVDDHDSEEICLDHLCKGCPLNGSCSKVHFHLPYRWQMLIGKTWTDFEHMETIEKGYCNPGIHLCSVGSYTINFRVMSCDSFPIRRLSTPSSVTKPANSVFTTKWIWYWKNESGTWIQYGEEKDKRKNSNVDSSYLESLYQSCPRGVVPFQAGSRNYELSFQGMIQTNIASKTQKDVIRRPTFVPQWYVQQMKRGPDHQPAKTSSVSLTATFRPQEDFCFLSSKKYKLSEIHHLHPEYVRVSEHFKASMKNFKIEKIKKIENSELLDKFTWKKSQMKEEGKLLFYATSRAYVESICSNNFDSFLHETHENKYGKGIYFAKDAIYSHKNCPYDAKNVVMFVAQVLVGKFTEGNITYTSPPPQFDSCVDTRSNPSVFVIFQKDQVYPQYVIEYTEDKACVIS | 0.196 | –
FLAG-tagged ZAPL K107A/Y108A (natural protein, human, UniProt Q7Z2W4-1 1-902, looked up, zinc finger antiviral protein (ZAP), long isoform ZAPL, cloned from pTRIP-TagRFP-hZAPL; also called ZAPL KY; KY; source: ZAP KO 293T cells, transfected (pcDNA3.1-3XFLAG), in lysate; not shown: 3XFLAG, N-terminal, kept) MADPEVCCFITKILCAHGGRMALDALLQEIALSEPQLCEVLQVAGPDRFVVLETGGEAGITRSVVATTRARVCRRKYCQRPCDNLHLCKLNLLGRCNYSQSERNLCAASHEVLSEENFKVLKNHELSGLNKEELAVLLLQSDPFFMPEICKSYKGEGRQQICNQQPPCSRLHICDHFTRGNCRFPNCLRSHNLMDRKVLAIMREHGLNPDVVQNIQDICNSKHMQKNPPGPRAPSSHRRNMAYRARSKSRDRFFQGSQEFLASASASAERSCTPSPDQISHRASLEDAPVDDLTRKFTYLGSQDRARPPSGSSKATDLGGTSQAGTSQRFLENGSQEDLLHGNPGSTYLASNSTSAPNWKSLTSWTNDQGARRKTVFSPTLPAARSSLGSLQTPEAVTTRKGTGLLSSDYRIINGKSGTQDIQPGPLFNNNADGVATDITSTRSLNYKSTSSGHREISSPRIQDAGPASRDVQATGRIADDADPRVALVNDSLSDVTSTTSSRVDDHDSEEICLDHLCKGCPLNGSCSKVHFHLPYRWQMLIGKTWTDFEHMETIEKGYCNPGIHLCSVGSYTINFRVMSCDSFPIRRLSTPSSVTKPANSVFTTKWIWYWKNESGTWIQYGEEKDKRKNSNVDSSYLESLYQSCPRGVVPFQAGSRNYELSFQGMIQTNIASKTQKDVIRRPTFVPQWYVQQMKRGPDHQPAKTSSVSLTATFRPQEDFCFLSSKKYKLSEIHHLHPEYVRVSEHFKASMKNFKIEKIKKIENSELLDKFTWKKSQMKEEGKLLFYATSRAYVESICSNNFDSFLHETHENKYGKGIYFAKDAIYSHKNCPYDAKNVVMFVAQVLVGKFTEGNITYTSPPPQFDSCVDTRSNPSVFVIFQKDQVYPQYVIEYTEDKACVIS | 0.086 | –
FLAG-tagged ZAPL V72A/Y108A/F144A (natural protein, human, UniProt Q7Z2W4-1 1-902, looked up, zinc finger antiviral protein (ZAP), long isoform ZAPL, cloned from pTRIP-TagRFP-hZAPL; also called ZAPL VYF; VYF; source: ZAP KO 293T cells, transfected (pcDNA3.1-3XFLAG), in lysate; not shown: 3XFLAG, N-terminal, kept) MADPEVCCFITKILCAHGGRMALDALLQEIALSEPQLCEVLQVAGPDRFVVLETGGEAGITRSVVATTRARACRRKYCQRPCDNLHLCKLNLLGRCNYSQSERNLCKASHEVLSEENFKVLKNHELSGLNKEELAVLLLQSDPAFMPEICKSYKGEGRQQICNQQPPCSRLHICDHFTRGNCRFPNCLRSHNLMDRKVLAIMREHGLNPDVVQNIQDICNSKHMQKNPPGPRAPSSHRRNMAYRARSKSRDRFFQGSQEFLASASASAERSCTPSPDQISHRASLEDAPVDDLTRKFTYLGSQDRARPPSGSSKATDLGGTSQAGTSQRFLENGSQEDLLHGNPGSTYLASNSTSAPNWKSLTSWTNDQGARRKTVFSPTLPAARSSLGSLQTPEAVTTRKGTGLLSSDYRIINGKSGTQDIQPGPLFNNNADGVATDITSTRSLNYKSTSSGHREISSPRIQDAGPASRDVQATGRIADDADPRVALVNDSLSDVTSTTSSRVDDHDSEEICLDHLCKGCPLNGSCSKVHFHLPYRWQMLIGKTWTDFEHMETIEKGYCNPGIHLCSVGSYTINFRVMSCDSFPIRRLSTPSSVTKPANSVFTTKWIWYWKNESGTWIQYGEEKDKRKNSNVDSSYLESLYQSCPRGVVPFQAGSRNYELSFQGMIQTNIASKTQKDVIRRPTFVPQWYVQQMKRGPDHQPAKTSSVSLTATFRPQEDFCFLSSKKYKLSEIHHLHPEYVRVSEHFKASMKNFKIEKIKKIENSELLDKFTWKKSQMKEEGKLLFYATSRAYVESICSNNFDSFLHETHENKYGKGIYFAKDAIYSHKNCPYDAKNVVMFVAQVLVGKFTEGNITYTSPPPQFDSCVDTRSNPSVFVIFQKDQVYPQYVIEYTEDKACVIS | 0.574 | –
